Test results from US20250043302A1, “MUTATED HYDROXYPHENYLPYRUVATE DIOXYGENASE POLYPEPTIDE, AND CODING GENE AND USE THEREOF” (BEIJING DABEINONG BIOTECHNOLOGY CO., LTD., priority 2021, published 2025).

Assays:
[1] = system: Arabidopsis thaliana T1 plants; assay: Topramezone tolerance of transgenic Arabidopsis thaliana T1 plants (spray, bleached leaf area grade, damage score); type: in vivo; settings: for Classification and statistics of the grade of pesticide damage: Grade 0 / Classification and statistics of the grade of pesticide damage: Grade 1 / Classification and statistics of the grade of pesticide damage: Grade 2 / Classification and statistics of the grade of pesticide damage: Grade 3: number of plants; for Classification and statistics of the grade of pesticide damage: Grade 0 / Classification and statistics of the grade of pesticide damage: Grade 1 / Classification and statistics of the grade of pesticide damage: Grade 2 / Classification and statistics of the grade of pesticide damage: Grade 3 / Scores / Resistance evaluation: 7 DAT, Table 1; for Scores: pesticide damage score 0-100
Excerpt: T1 transformants were initially selected from the untransformed seeds using a glufosinate selection scheme. The Arabidopsis thaliana T1 plants (AsHPPD-02) into which the AsHPPD-02 nucleotide sequence was introduced, the Arabidopsis thaliana T1 plants (AsHPPDm-F372A-02) into which the AsHPPDm-F372A-02 nucleotide sequence was introduced, the Arabidopsis thaliana T1 plants (AsHPPDm-F383W-02) into which the AsHPPDm-F383W-02 nucleotide sequence was introduced, the Arabidopsis thaliana T1 plants (AsHPPDm-F372A-F383W-02) into which the AsHPPDm-F372A-F383W-02 nucleotide sequence was introduced, the Arabidopsis thaliana T1 plants (DBN11726N) into which the control recombinant expression vector DBN11726N was introduced, and the wild-type Arabidopsis thaliana plants (CK) (18 days after sowing) were sprayed respectively with topramezone at three concentrations (100 g ai/ha (four-fold field concentration, 4×), 200 g ai/ha (eight-fold field concentration, 8×), and 0 g ai/ha (water, 0×)), isoxaflutole at three concentrations (140 g ai/ha (two-fold field concentration, 2×), 280 g ai/ha (four-fold field concentration, 4×), and 0 g ai/ha (water, 0×)), and mesotrione at three concentrations (210 g ai/ha (two-fold field concentration, […]), 420 g ai/ha (four-fold field concentration, 4×), and 0 g ai/ha (water, 0×)), to determine the tolerance of Arabidopsis thaliana to the herbicides. The degree of damage caused by the herbicide was measured for each plant according to the proportion of bleached leaf area (the proportion of bleached leaf area=bleached leaf area/total leaf area×100%) 7 days after spraying (7 DAT): the case where there is basically no bleached phenotype is defined as grade 0, the case where the proportion of bleached leaf area is less than 50% is defined as grade 1, the case where the proportion of bleached leaf area is more than 50% is defined as grade 2, and the case where the proportion of bleached leaf area is 100% grade is defined as grade 3.
According to the method as described above in point 6 of Example 1, the aforementioned Arabidopsis thaliana T1 plants and wild-type Arabidopsis thaliana plants (CK) (18 days after sowing) were sprayed respectively with topramezone at three concentrations (25 g ai/ha (one-fold field concentration, 1×). 100 g ai/ha (four-fold field concentration, 4×), and 0 g ai/ha (water, 0×)), isoxaflutole at three concentrations (35 g ai/ha (half-fold field concentration, 0.5×). 70 g ai/ha (one-fold field concentration, 1×), and 0 g ai/ha (water, 0×)), and mesotrione at three concentrations (52.5 g ai/ha (half-fold field concentration, 0.5×), 105 g ai/ha (one-fold field concentration, 1×), and 0 g ai/ha (water, 0×)) to detect the tolerance of Arabidopsis thaliana to the herbicides.
According to the method as described above in point 6 of Example 1, the aforementioned Arabidopsis thaliana T1 plants and wild-type Arabidopsis thaliana plants (CK) (18 days after sowing) were sprayed with topramezone at three different concentrations (i.e., 100 g ai/ha (four-fold field concentration, 4×), 200 g ai/ha (eight-fold field concentration, 8×) and 0 g ai/ha (water, 0×)), isoxaflutole at three different concentrations (i.e., 140 g ai/ha (two-fold field concentration, 2×), 280 g ai/ha (four-fold field concentration, 4×) and 0 g ai/ha (water, 0×)), and mesotrione at three different concentrations (i.e., 210 g ai/ha (two-fold field concentration, 2×), 420 g ai/ha (four-fold field concentration, 4×) and 0 g ai/ha (water, 0×)) respectively to detect the herbicide tolerance of Arabidopsis thaliana. […]

[2] = system: Arabidopsis thaliana T1 plants; assay: Isoxaflutole tolerance of transgenic Arabidopsis thaliana T1 plants (spray, bleached leaf area grade, damage score); type: in vivo; settings: for Classification and statistics of the grade of pesticide damage Grade 0 / Classification and statistics of the grade of pesticide damage Grade 1 / Classification and statistics of the grade of pesticide damage Grade 2 / Classification and statistics of the grade of pesticide damage Grade 3: number of plants in grade;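 as to Scores: Weighted damage index from 0 to 100 where higher means more damage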
How it was run: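 Damage graded 0–3 from the proportion of bleached leaf area 7 days after spraying. Plants were glufosinate-selected T1 lines, 18 days after sowing, plus vector and wild-type controls. Rates: mesotrione 52.5–420, isoxaflutole 35–280, topramezone 25–200 g ai/ha, with water (0×).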

[3] = number of plants, isoxaflutole 140 g ai/ha (2×), 7 DAT, Table 2

B1: AsHPPDm-F372A-02: nucleotide sequence encoding Avena sativa HPPD with F372A; vector DBN11728 (nucleic acid)
DNA: ATGCCACCTACTCCAGCTACAGCTACTGGTGCTGCTGCTGCTGCCGTTACTCCTGAGCACGCTGCCAGGTCATTCCCCAGGGTGGTTCGCGTGAACCCCAGATCTGATAGGTTCCCAGTTCTGAGCTTCCACCATGTTGAGCTGTGGTGCGCTGATGCTGCTTCTGCTGCTGGCAGGTTCTCTTTCGCTCTTGGTGCTCCACTCGCTGCTAGATCTGATCTGTCTACAGGAAATAGCGCTCATGCCTCACTCCTGCTTCGCTCAGGTGCTTTGGCCTTCCTCTTCACCGCTCCATATGCTCCCCCACCTCAGGAGGCTGCTACTGCTGCTGCTACAGCCTCCATTCCAAGCTTCTCAGCTGATGCCGCTAGAACCTTCGCTGCTGCTCATGGACTTGCCGTGAGGTCTGTTGGTGTTCGCGTGGCTGATGCTGCTGAGGCTTTCAGAGTTTCCGTTGCCGGCGGAGCTAGGCCAGCTTTCGCTCCTGCTGATTTGGGACATGGTTTCGGCCTGGCTGAGGTTGAGCTTTACGGTGACGTGGTTCTCCGCTTCGTGTCTTACCCAGATGAGACTGACCTGCCTTTCCTTCCCGGCTTCGAGAGAGTTTCCTCTCCTGGTGCCGTGGATTACGGCCTGACAAGGTTCGACCACGTGGTTGGAAACGTTCCCGAGATGGCTCCAGTGATCGATTACATGAAGGGCTTCCTTGGATTCCATGAGTTCGCCGAGTTCACTGCTGAGGACGTGGGAACCACTGAGTCCGGTTTGAACTCTGTGGTTCTCGCCAACAATTCTGAGGCTGTTTTGCTCCCTCTGAATGAGCCTGTGCATGGAACCAAGAGGAGAAGCCAGATTCAAACTTACCTGGAGTACCACGGTGGCCCTGGAGTTCAGCATATCGCCCTTGCTTCTAATGATGTGTTGCGCACACTCAGAGAGATGCGCGCCAGAACCCCCATGGGAGGTTTCGAGTTCATGGCCCCACCACAGGCTAAGTACTACGAGGGCGTTAGAAGGATTGCTGGAGACGTGTTGAGCGAGGAGCAGATCAAGGAGTGCCAAGAGCTGGGTGTTCTTGTGGATAGGGATGACCAGGGCGTTCTGCTTCAAATTGCCACTAAGCCAGTGGGCGACCGCCCTACATTCTTCCTTGAGATGATTCAAAGAATCGGCTGCATGGAGAAGGATGAGGTTGGACAGGAGTACCAAAAGGGCGGATGCGGTGGCTTCGGAAAGGGTAACTTCAGCGAGTTGTTCAAGTCAATCGAGGACTACGAGAAGAGCCTCGAGGTGAAGCAGTCAGTGGTTGCCCAAAAGTCCTGA
modifications: AsHPPDm-F372A-02 Nucleotide Sequence
notes: vector DBN11728
Classification and statistics of the grade of pesticide damage: Grade 0 ([1]; topramezone 100 g ai/ha (4×)): 16
Classification and statistics of the grade of pesticide damage: Grade 1 ([1]; topramezone 100 g ai/ha (4×)): 0
Classification and statistics of the grade of pesticide damage: Grade 2 ([1]; topramezone 100 g ai/ha (4×)): 0
Classification and statistics of the grade of pesticide damage: Grade 3 ([1]; topramezone 100 g ai/ha (4×)): 0
Classification and statistics of the grade of pesticide damage: Grade 0 ([1]; topramezone 200 g ai/ha (8×)): 16
Classification and statistics of the grade of pesticide damage: Grade 1 ([1]; topramezone 200 g ai/ha (8×)): 0
Classification and statistics of the grade of pesticide damage: Grade 2 ([1]; topramezone 200 g ai/ha (8×)): 0
Classification and statistics of the grade of pesticide damage: Grade 3 ([1]; topramezone 200 g ai/ha (8×)): 0
Scores ([1]; topramezone 100 g ai/ha (4×)): 0
Scores ([1]; topramezone 200 g ai/ha (8×)): 0
Resistance evaluation ([1]; topramezone 100 g ai/ha (4×)): highly resistant (highly resistant plants (scores 0-15))
Resistance evaluation ([1]; topramezone 200 g ai/ha (8×)): highly resistant (highly resistant plants (scores 0-15))
tolerance to topramezone (resistance class) ([1]; topramezone at four-fold or eight-fold field concentration): highly-resistant
tolerance to isoxaflutole (in words) ([2]; in vivo): different degrees of tolerance
Resistance evaluation ([2]; isoxaflutole 140 g ai/ha): Moderately
Scores ([2]; isoxaflutole 140 g ai/ha): 33
Resistance evaluation ([2]; isoxaflutole 140 g ai/ha (2×), 7 DAT, Table 2): moderately
Classification and statistics of the grade of pesticide damage Grade 0 ([2]; isoxaflutole 140 g ai/ha): 5
Classification and statistics of the grade of pesticide damage Grade 1 ([2]; isoxaflutole 140 g ai/ha): 6
Classification and statistics of the grade of pesticide damage Grade 2 ([2]; isoxaflutole 140 g ai/ha): 5
Classification and statistics of the grade of pesticide damage Grade 3 ([2]; isoxaflutole 140 g ai/ha): 0
Resistance evaluation ([2]; isoxaflutole 280 g ai/ha): Poorly
Scores ([2]; isoxaflutole 280 g ai/ha): 67
Resistance evaluation ([2]; isoxaflutole 280 g ai/ha (4×), 7 DAT, Table 2): poorly resistant (poorly resistant plants (scores 34-67))
Classification and statistics of the grade of pesticide damage Grade 0 ([2]; isoxaflutole 280 g ai/ha): 0
Classification and statistics of the grade of pesticide damage Grade 1 ([2]; isoxaflutole 280 g ai/ha): 0
Classification and statistics of the grade of pesticide damage Grade 2 ([2]; isoxaflutole 280 g ai/ha): 16
Classification and statistics of the grade of pesticide damage Grade 3 ([2]; isoxaflutole 280 g ai/ha): 0
tolerance to isoxaflutole (resistance class) ([2]; isoxaflutole at four-fold field concentration): poorly-resistant
tolerance to isoxaflutole (resistance class) ([2]; isoxaflutole at two-fold field concentration): moderately-resistant
Classification and statistics of the grade of pesticide damage: Grade 0 [2, 3]: 5
Classification and statistics of the grade of pesticide damage: Grade 1 [2, 3]: 6
Classification and statistics of the grade of pesticide damage: Grade 2 [2, 3]: 5
